From paper PMC3200332 come the findings set out here.

The experiment deals with pyruvate ferredoxin oxidoreductase (POR) from P. furiosus (Pyrococcus furiosus).

“OE-SHI Dimer, heterodimeric form of P. furiosus soluble hydrogenase I (His9-PF0893 + PF0894) (from UniProt Q8U2E5 1-367) (complex)” showed a POR-linked H2 evolution activity (electrons from pyruvate via POR; ferredoxin had no significant effect) of 0.2 U mg^−1.
For the substance “native Pyrococcus furiosus soluble hydrogenase I (SHI), heterotetramer PF0891-PF0894 (from UniProt Q8U2E5 1-367; Q8U2E5 1-367) (complex)”, the POR-linked H2 evolution activity (electrons from pyruvate via POR) was -0 U mg^−1.
